# Results published in the supplement of paper PMC12764529.
# ± gives the half width of the 95% confidence interval.
# Experiment: folding stability dG unfold from chymotrypsin proteolysis; higher = more stable
# In short: (§1)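 Bayesian fitting of sequencing counts gave K50 for each design. Unfolding free energy followed by setting this against a sequence-predicted unfolded-state K50 and a shared folded-state K50, either per protease or with trypsin and chymotrypsin combined. The designs, under 80 residues and lacking cysteine, were digested in a PA-tagged cDNA display format at 11 threefold-diluted protease concentrations and without protease, and only those with AlphaFold2 dimer inter-PAE above 15 were kept.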
row,Sequence,folding stability dG unfold [kcal/mol]
1,SAGGSAGGSAGYVVIPLDIDAEPGATVEITLPNGEKIEAIVEDHPDGLRSVRVGDGVILVPGSAGGSAGGSA [r18_372_TrMRF],0.827 ± 0.05
2,SAGGSAGGSAGGSVSSVSTTSSPVVDPETGPASTVTTHSVPGGPATTVVMTPDSTTTTGSAGGSAGGSAGGS [r10_384_JUSTAS],1.43 ± 0.038
3,SAGGSAGGSAGGYVGPDQPVIIVEVKVKGARIGKDGKIYYDFEVERIEIREVEEGDNLGSAGGSAGGSAGGS [r10_826_TrMRF],1.9 ± 0.088
4,SPYTVDSVSEDPSRNSTTVLNFPDGTTVTVTYDPSNPSLATVTVRPADGTTETTTVPLDEPFVVNLTVNPSA [r9_875_JUSTAS],0.94 ± 0.17
5,SEPPPKIKIKEVEYNPDDGYLTIPVTHPNGPKMRVKFRPPDGKTQEIPPNSPTITIPLPPNMRLTEIEVDSA [r9_113_TrROS],2.79 ± 0.29
6,SAGGSAEIAEKNGFKITVELHRYNDYIMVEIEIRWPGGQEFTVTIMIKIKIVPPKPPVDPNDPDNNSAGGSA [r15_843_TrROS],4.47 ± 0.12
7,SAGGSAGGSAGVVEPTVVSRAPDGTLTVVLNLPDGSTRTVTDPTNVTIGDRPINALTNASSAGGSAGGSAGG [r11_1017_JUSTAS],0.508 ± 0.042
8,SAGGSAGGSAGNKPVTVRFTIKIPLPNGKKLEIPVEVTYDSPEDRDRAEKEAEEIAREFLSAGGSAGGSAGG [r17_510_TrROS],1.11 ± 0.098
9,SAGGSAGGSAGASPTAPAVTVEVKTEEVPNNDLLKTTTTTYFPGTGTTVTTETILPPGLGSAGGSAGGSAGG [r11_746_JUSTAS],-0.269 ± 0.086
10,SAGGKVKIVKIEIEEVDGKLKIRIVVEVDTPEDLEALKKAGVKKLKVEKRRLPNGRLLVVIEVEVEVKSAGG [r13_506_TrROS_Hall],3.86 ± 0.074
11,SAGGSAGGEEIAKKLRDLAKKLGLDVEIKKIEVTKYPLPEGDENKEEKWVTTITITVNGKKITLSAGGSAGG [r6_686_TrROS_Hall],2.53 ± 0.061
12,SAGGMFLRIEPEDGSRFEIPLNDPSLPLEVVVGLVSKYMDGPVKLKLTLVLPEEEVEYEYEIPLEKKSAGGS [r16_216_TrMRF],2.37 ± 0.061
13,SAGKDGDPPKRVRIKFKIPLPGGKLYEVTQTFYPNGSVHVSIRFPNGWMLSAWIPPDGDIEIKIMPIKKSAG [r5_168_TrROS],4.3 ± 0.14
14,SAGGSAGGSAGATISPDGYKIVVTNADGEKVTLTFDSLEEAKAALEALLPPGARVFIEKVSAGGSAGGSAGG [r11_983_TrROS_Hall],2.009 ± 0.011
15,SAGGSAGPDPKNKKIKVKVETFYLEDFGLKVEKIYIEGTGKPLLVFYFPDGSKLIINEDGTVKLIESAGGSA [r15_617_TrMRF],3.33 ± 0.14
16,SADHKFEIDINVFEHDGWRYIMIPVKYDDPQDVDEAAEKILREFGIPPNFNVNVMRSPNEVWINIRIPYSAG [r14_804_TrROS],2.85 ± 0.077
17,SAGGSAGGEKTTVLVRVELYLEDTEVVELPDFVFTDLTEEQVLEEVRKLGLPDNVKVEIIPLPASAGGSAGG [r6_88_TrMRF],2.46 ± 0.11
18,SAGGSAGGSAGSSPSDLKVTLKVTLPDGTVLTVVMPAHATLDDFPADRPVTVTTLETKLESAGGSAGGSAGG [r11_997_JUSTAS],0.656 ± 0.043
19,SAGGDKDNKPPIPTKTITFMLPYDSPEDAKDYAEEIARELFQEEGIPIKVTVQYNPESGWVWVTITIYSAGG [r13_517_TrROS],4.57 ± 0.075
20,SAGPVVVDPNGKLLPLKVKAVFVIDPELLEEKAKESDNSLEKAIRDLVKELEAELKAKGYDVEVEGIGSAGG [r19_305_TrMRF],1.97 ± 0.049
21,SAGGKEKVKIKIKIIDKKTNKVYEAEATFDKETGKVTITFPDGSKITFDLKTNKLYIEKDGKIIEIESAGGS [r16_743_TrROS_Hall],3.53 ± 0.091

# Experiment: folding stability dG unfold (combined trypsin and chymotrypsin); higher = more stable
# In short: as §1
row,Sequence,folding stability dG unfold [kcal/mol]
1,SAMKYTVKLPPGAEPIQPEELAALPYVEVVEVEISDGEDGTRTLTITVSPDVPEENVEKLKEYIEKKLKSAG [r14_421_JUSTAS],3.12 ± 0.085
2,SAGGPPIKKAEIKEIYPEKGIINAIIELEDIPKPYEAIGIITDEKEGIIFVEIINPEGGPPLYFTIKASAGG [r13_337_TrMRF],0.972 ± 0.22
3,SAGGGSMTPTTTTKTYNVPPELAQKILDGYPLGDKELAAALGLPPDVEVTLVSSDEDTLTVEITIPASAGGS [r16_679_JUSTAS],3.81 ± 0.075
4,SAGGSAGGSAGGDERVEVFEFDAPGGYRVRLVDFGDLALVAFISPDGRPAVIPVPRELLSAGGSAGGSAGGS [r10_1075_TrMRF],1.41 ± 0.044
5,SAGGSAGETVYRVKIRVNGEELEIEVSAEELEALKALPGLEIELVRVEPAPPPEREETVVPEEEEESAGGSA [r15_443_TrROS_Hall],3.43 ± 0.12
6,SAGGSAGGSAGGGMSSVSLVKTSTITVGNGTVKLETLSYPDSSFVRTTLPNGKDVVEPLPSAGGSAGGSAGG [r7_655_JUSTAS],-0.089 ± 0.13
7,SAGGMYKARIEVKNPEEVKKKIKELGLEFEIETRPDGSVDIYFPPEYVDKLIKAFPGEKIEIEPIPDESAGG [r13_261_TrMRF],3.29 ± 0.14
8,SAGGSAIVIPVKSWEEFVEALKNAPASVEIIADLPDGNVIKAKIDPSKGPKIIITEVFPVPPELAGSAGGSA [r15_577_TrMRF],0.859 ± 0.11
9,SAGGEELMKDHPNFIFITIEIRHPGGGKEKPKFMIMIPNNTPEELIDELRDFLPPGYKIKDVEIHYMDSAGG [r13_849_TrROS],2.14 ± 0.17
10,SAGGSAMVRIEVELENGEKLEIEIEVPEEMTEEELLEKAKELAKELAEKLGIPEAKVKVVKIEVVPSAGGSA [r15_463_TrROS_Hall],3.92 ± 0.23
11,SAGGSAGGSAGGLKPGQKVAVFVKVKVKLYRDPATNELTEEVEIEDVFVVDAETKELLLSAGGSAGGSAGGS [r10_248_TrROS_Hall],2.45 ± 0.12
12,SAGGSAGGKLKKFKIKEIKIEKNKETNTYTVTITLENGEKLTITAKSKEDAEKALRKLKEAGLLSAGGSAGG [r6_65_TrROS_Hall],3.02 ± 0.2
13,SAGGSAGGSAGGDKDDKPPVRTVTVMHMFFDENGWLVKFDITFTANGQIEIDWGPVPLPSAGGSAGGSAGGS [r10_682_TrROS],3.52 ± 0.5
14,SAGDSIEIMVMVKTPEEAKKLADEIAQILPGNGLNIEITIMPMEELMKMFMEMTKPDPDGEYRRVRMFSAGG [r19_187_TrROS],1.3 ± 0.14
15,SAGGMKPGAPVEIEFPIPGIPPGRRFRIMIHYPNGKHVEAEYTDNTIKIEIPVPDGDNIHHIYIYFYSAGGS [r16_179_TrROS],3.86 ± 0.12
16,SAGGSKDLEIKITKIKEWDPPNGKQTIRIPIEVYDPENGKPRPPAEELADELQKRFPGMPIKVEPVSAGGSA [r2_27_TrROS],0.441 ± 0.14
17,SAGGMKKGQKVTITIEKNEDGTLRITVKVDGKEFVFEFPKDMSLEELLKKAEEAAKKLNLPVEIEPVSAGGS [r16_446_TrROS_Hall],2.3 ± 0.25
18,SAGGLKIVETKTEPEIGKRYVVIEVYKPETGKPILYVVPLDLEKGENSPEAVAKAILKELKLPPGVKASAGG [r13_362_TrMRF],1.24 ± 0.18
19,SAGGSAGGSAGEFELLSVEYFPPIGRVRVAYRRGDLVLVVDFFNPENPEIRPVSLSDELGSAGGSAGGSAGG [r17_145_TrMRF],2.59 ± 0.18
20,SAGGSAGGSAGGKIIVYNPETGKPEEVSPEDLEEIIKNTPGPLILKVGEGEIELNAKDISAGGSAGGSAGGS [r10_839_TrMRF],0.828 ± 0.12
21,SAGGSAGGSSMTFEVVEIERPPGDEIRVLVKREDGREFAEITLPPGASPEEIERAVREAVEAESAGGSAGGS [r12_798_JUSTAS],1.26 ± 0.28

row,Sequence,folding stability dG unfold [kcal/mol]
1,SAGGSAGGSAGYVVIPLDIDAEPGATVEITLPNGEKIEAIVEDHPDGLRSVRVGDGVILVPGSAGGSAGGSA [r18_372_TrMRF],0.742 ± 0.087
2,SAGGSAGGSAGGSVSSVSTTSSPVVDPETGPASTVTTHSVPGGPATTVVMTPDSTTTTGSAGGSAGGSAGGS [r10_384_JUSTAS],1.59 ± 0.074
3,SAGGSAGGSAGGYVGPDQPVIIVEVKVKGARIGKDGKIYYDFEVERIEIREVEEGDNLGSAGGSAGGSAGGS [r10_826_TrMRF],1.82 ± 0.17
4,SPYTVDSVSEDPSRNSTTVLNFPDGTTVTVTYDPSNPSLATVTVRPADGTTETTTVPLDEPFVVNLTVNPSA [r9_875_JUSTAS],1.02 ± 0.21
5,SEPPPKIKIKEVEYNPDDGYLTIPVTHPNGPKMRVKFRPPDGKTQEIPPNSPTITIPLPPNMRLTEIEVDSA [r9_113_TrROS],3.22 ± 0.33
6,SAGGSAEIAEKNGFKITVELHRYNDYIMVEIEIRWPGGQEFTVTIMIKIKIVPPKPPVDPNDPDNNSAGGSA [r15_843_TrROS],4.48 ± 0.51
7,SAGGSAGGSAGVVEPTVVSRAPDGTLTVVLNLPDGSTRTVTDPTNVTIGDRPINALTNASSAGGSAGGSAGG [r11_1017_JUSTAS],0.222 ± 0.14
8,SAGGSAGGSAGNKPVTVRFTIKIPLPNGKKLEIPVEVTYDSPEDRDRAEKEAEEIAREFLSAGGSAGGSAGG [r17_510_TrROS],1.36 ± 0.097
9,SAGGSAGGSAGASPTAPAVTVEVKTEEVPNNDLLKTTTTTYFPGTGTTVTTETILPPGLGSAGGSAGGSAGG [r11_746_JUSTAS],-0.00225 ± 0.12
10,SAGGKVKIVKIEIEEVDGKLKIRIVVEVDTPEDLEALKKAGVKKLKVEKRRLPNGRLLVVIEVEVEVKSAGG [r13_506_TrROS_Hall],3.42 ± 0.062
11,SAGGSAGGEEIAKKLRDLAKKLGLDVEIKKIEVTKYPLPEGDENKEEKWVTTITITVNGKKITLSAGGSAGG [r6_686_TrROS_Hall],2.37 ± 0.081
12,SAGGMFLRIEPEDGSRFEIPLNDPSLPLEVVVGLVSKYMDGPVKLKLTLVLPEEEVEYEYEIPLEKKSAGGS [r16_216_TrMRF],1.98 ± 0.098
13,SAGKDGDPPKRVRIKFKIPLPGGKLYEVTQTFYPNGSVHVSIRFPNGWMLSAWIPPDGDIEIKIMPIKKSAG [r5_168_TrROS],4 ± 0.23
14,SAGGSAGGSAGATISPDGYKIVVTNADGEKVTLTFDSLEEAKAALEALLPPGARVFIEKVSAGGSAGGSAGG [r11_983_TrROS_Hall],1.61 ± 0.031
15,SAGGSAGPDPKNKKIKVKVETFYLEDFGLKVEKIYIEGTGKPLLVFYFPDGSKLIINEDGTVKLIESAGGSA [r15_617_TrMRF],2.89 ± 0.23
16,SADHKFEIDINVFEHDGWRYIMIPVKYDDPQDVDEAAEKILREFGIPPNFNVNVMRSPNEVWINIRIPYSAG [r14_804_TrROS],2.53 ± 0.15
17,SAGGSAGGEKTTVLVRVELYLEDTEVVELPDFVFTDLTEEQVLEEVRKLGLPDNVKVEIIPLPASAGGSAGG [r6_88_TrMRF],2.47 ± 0.11
18,SAGGSAGGSAGSSPSDLKVTLKVTLPDGTVLTVVMPAHATLDDFPADRPVTVTTLETKLESAGGSAGGSAGG [r11_997_JUSTAS],1.29 ± 0.12
19,SAGGDKDNKPPIPTKTITFMLPYDSPEDAKDYAEEIARELFQEEGIPIKVTVQYNPESGWVWVTITIYSAGG [r13_517_TrROS],4.32 ± 0.12
20,SAGPVVVDPNGKLLPLKVKAVFVIDPELLEEKAKESDNSLEKAIRDLVKELEAELKAKGYDVEVEGIGSAGG [r19_305_TrMRF],1.68 ± 0.061
21,SAGGKEKVKIKIKIIDKKTNKVYEAEATFDKETGKVTITFPDGSKITFDLKTNKLYIEKDGKIIEIESAGGS [r16_743_TrROS_Hall],3.19 ± 0.28
